# B1: HHH_rd1_0493 (parent)
# chain: RDEDEKEKIKEALKRGNEDKAKEIAKRANVSPEEYERLRKEAE
# Variants of: B1
# Test: folding stability dG (cDNA display proteolysis); higher = more stable
# Settings: PBS, room temperature
row,Variant,folding stability dG
1,RDEDEKEKIKEALKRGNEDKAKEIAKRANDSPEEYERLRKEAE [V30D],0.32 kcal/mol
2,RDEDEKEKIKEALKRGNEDKAKEIAKRANSSPEEYERLRKEAE [V30S],0.63 kcal/mol
3,RDEDEKEKIKEALKRGNEDKAKEIAKRANGSPEEYERLRKEAE [V30G],0.389 kcal/mol
4,RDEDEKEKIKEALKRGNEDKAKEIAKRANHSPEEYERLRKEAE [V30H],0.486 kcal/mol
5,RDEDEKEKIKEALKRGNEDKAKEIAKRANLSPEEYERLRKEAE [V30L],3.09 kcal/mol
6,RDEDEKEKIKEALKRGNEDKAKEIAKRANCSPEEYERLRKEAE [V30C],1.69 kcal/mol
7,RDEDEKEKIKEALKRGNEDKAKEIAKRANMSPEEYERLRKEAE [V30M],2.89 kcal/mol
8,RDEDEKEKIKEALKRGNEDKAKEIAKRANPSPEEYERLRKEAE [V30P],0.301 kcal/mol
9,RDEDEKEKIKEALKRGNEDKAKEIAKRANRSPEEYERLRKEAE [V30R],0.486 kcal/mol
10,RDEDEKEKIKEALKRGNEDKAKEIAKRANESPEEYERLRKEAE [V30E],0.435 kcal/mol
11,RDEDEKEKIKEALKRGNEDKAKEIAKRANFSPEEYERLRKEAE [V30F],2.3 kcal/mol
12,RDEDEKEKIKEALKRGNEDKAKEIAKRANWSPEEYERLRKEAE [V30W],1.73 kcal/mol
13,RDEDEKEKIKEALKRGNEDKAKEIAKRANYSPEEYERLRKEAE [V30Y],1.84 kcal/mol
14,RDEDEKEKIKEALKRGNEDKAKEIAKRANVDPEEYERLRKEAE [S31D],2.6 kcal/mol
15,RDEDEKEKIKEALKRGNEDKAKEIAKRANVEPEEYERLRKEAE [S31E],2.17 kcal/mol
16,RDEDEKEKIKEALKRGNEDKAKEIAKRANVKPEEYERLRKEAE [S31K],2.07 kcal/mol
17,RDEDEKEKIKEALKRGNEDKAKEIAKRANVIPEEYERLRKEAE [S31I],1.44 kcal/mol
18,RDEDEKEKIKEALKRGNEDKAKEIAKRANVHPEEYERLRKEAE [S31H],1.95 kcal/mol
19,RDEDEKEKIKEALKRGNEDKAKEIAKRANVAPEEYERLRKEAE [S31A],2.45 kcal/mol
20,RDEDEKEKIKEALKRGNEDKAKEIAKRANVFPEEYERLRKEAE [S31F],1.4 kcal/mol

row,Variant,folding stability dG
1,RDEDEKEKIKEALKRGNEDKAKEIAKRANVCPEEYERLRKEAE [S31C],1.74 kcal/mol
2,RDEDEKEKIKEALKRGNEDKAKEIAKRANVGPEEYERLRKEAE [S31G],2.94 kcal/mol
3,RDEDEKEKIKEALKRGNEDKAKEIAKRNNVSPEEYERLRKEAE [A28N],2.9 kcal/mol
4,RDEDEKEKIKEALKRGNEDKAKEIAKRWNVSPEEYERLRKEAE [A28W],2.25 kcal/mol
5,RDEDEKEKIKEALKRGNEDKAKEIAKRTNVSPEEYERLRKEAE [A28T],2.25 kcal/mol
6,RDEDEKEKIKEALKRGNEDKAKEIAKRFNVSPEEYERLRKEAE [A28F],2.91 kcal/mol
7,RDEDEKEKIKEALKRGNEDKAKEIAKRVNVSPEEYERLRKEAE [A28V],2.32 kcal/mol
8,RDEDEKEKIKEALKRGNEDKAKEIAKRYNVSPEEYERLRKEAE [A28Y],3.02 kcal/mol
9,RDEDEKEKIKEALKRGNEDKAKEIAKRPNVSPEEYERLRKEAE [A28P],0.576 kcal/mol
10,RDEDEKEKIKEALKRGNEDKAKEIAKRQNVSPEEYERLRKEAE [A28Q],2.23 kcal/mol
11,RDEDEKEKIKEALKRGNEDKAKEIAKRMNVSPEEYERLRKEAE [A28M],2.64 kcal/mol
12,RDEDEKEKIKEALKRGNEDKAKEIAKRENVSPEEYERLRKEAE [A28E],1.96 kcal/mol
13,RDEDEKEKIKEALKRGNEDKAKEIAKRSNVSPEEYERLRKEAE [A28S],2.51 kcal/mol
14,RDEDEKEKIKEALKRGNEDKAKEIAKRCNVSPEEYERLRKEAE [A28C],2.78 kcal/mol
15,RDEDEKEKIKEALKRGNEDKAKEIAKRLNVSPEEYERLRKEAE [A28L],3.25 kcal/mol
16,RDEDEKEKIKEALKRGNEDKAKEIAKRRNVSPEEYERLRKEAE [A28R],1.84 kcal/mol
17,RDEDEKEKIKEALKRGNEDKAKEIAKRGNVSPEEYERLRKEAE [A28G],2.32 kcal/mol
18,RDEDEKEKIKEALKRGNEDKAKEIAKRHNVSPEEYERLRKEAE [A28H],2.83 kcal/mol
19,RDEDEKEKIKEALKRGNEDKAKEIAKRDNVSPEEYERLRKEAE [A28D],1.36 kcal/mol
20,RDEDEKEKIKEALKRGNEDKAKEIAKRINVSPEEYERLRKEAE [A28I],2.98 kcal/mol

row,Variant,folding stability dG
1,RDEDEKEKIKEALKRGNEDKAKEIAKRKNVSPEEYERLRKEAE [A28K],1.82 kcal/mol
2,RDEDEKEKIKEALKRGNEDKAKEIAMRANVSPEEYERLRKEAE [K26M],2.91 kcal/mol
3,RDEDEKEKIKEALKRGNEDKAKEIAGRANVSPEEYERLRKEAE [K26G],2.31 kcal/mol
4,RDEDEKEKIKEALKRGNEDKAKEIAVRANVSPEEYERLRKEAE [K26V],2.73 kcal/mol
5,RDEDEKEKIKEALKRGNEDKAKEIAERANVSPEEYERLRKEAE [K26E],2.83 kcal/mol
6,RDEDEKEKIKEALKRGNEDKAKEIARRANVSPEEYERLRKEAE [K26R],3.1 kcal/mol
7,RDEDEKEKIKEALKRGNEDKAKEIATRANVSPEEYERLRKEAE [K26T],2.79 kcal/mol
8,RDEDEKEKIKEALKRGNEDKAKEIAYRANVSPEEYERLRKEAE [K26Y],2.35 kcal/mol
9,RDEDEKEKIKEALKRGNEDKAKEIAWRANVSPEEYERLRKEAE [K26W],2.01 kcal/mol
10,RDEDEKEKIKEALKRGNEDKAKEIAPRANVSPEEYERLRKEAE [K26P],0.553 kcal/mol
11,RDEDEKEKIKEALKRGNEDKAKEIALRANVSPEEYERLRKEAE [K26L],3.05 kcal/mol
12,RDEDEKEKIKEALKRGNEDKAKEIAHRANVSPEEYERLRKEAE [K26H],2.74 kcal/mol
13,RDEDEKEKIKEALKRGNEDKAKEIAARANVSPEEYERLRKEAE [K26A],3.03 kcal/mol
14,RDEDEKEKIKEALKRGNEDKAKEIAFRANVSPEEYERLRKEAE [K26F],2.47 kcal/mol
15,RDEDEKEKIKEALKRGNEDKAKEIADRANVSPEEYERLRKEAE [K26D],2.71 kcal/mol
16,RDEDEKEKIKEALKRGNEDKAKEIAQRANVSPEEYERLRKEAE [K26Q],2.99 kcal/mol
17,RDEDEKEKIKEALKRGNEDKAKEIAIRANVSPEEYERLRKEAE [K26I],2.91 kcal/mol
18,RDEDEKEKIKEALKRGNEDKAKEIASRANVSPEEYERLRKEAE [K26S],2.75 kcal/mol
19,RDEDEKEKIKEALKRGNEDKAKEIANRANVSPEEYERLRKEAE [K26N],2.64 kcal/mol

# From the MegaScale stability set (Tsuboyama et al. 2023)
